Data as given in US20220213181A1 (Novartis, published 2022).

Tests used:
[1] = biological target: T1, Human ANGPTL4(26-161)-FLAG-His6-Avi (human, biotin on the C-terminal Avi tag (BirA) where the protein is immobilised); experiment: Octet (ForteBio) kinetics, biotinylated antigen on streptavidin sensor, IgG in solution; slower than the limit of detection
T1 construct: also called human ANGPTL4 N-terminal coiled coil domain; hANGPTL4-CCD
T1 chain: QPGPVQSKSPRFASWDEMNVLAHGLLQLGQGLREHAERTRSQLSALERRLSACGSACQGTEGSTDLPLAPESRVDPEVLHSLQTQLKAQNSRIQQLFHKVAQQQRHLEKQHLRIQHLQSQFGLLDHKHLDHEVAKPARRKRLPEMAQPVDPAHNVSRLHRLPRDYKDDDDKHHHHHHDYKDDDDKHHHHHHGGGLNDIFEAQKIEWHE

[2] = biological target: T2, Cynomolgus monkey ANGPTL4(26-406)-FLAG-His6-Avi (cynomolgus monkey, biotin on the C-terminal Avi tag (BirA) where the protein is immobilised); experiment: as above
T2 construct: also called Cyno ANGPTL4 (26-406)
T2 chain: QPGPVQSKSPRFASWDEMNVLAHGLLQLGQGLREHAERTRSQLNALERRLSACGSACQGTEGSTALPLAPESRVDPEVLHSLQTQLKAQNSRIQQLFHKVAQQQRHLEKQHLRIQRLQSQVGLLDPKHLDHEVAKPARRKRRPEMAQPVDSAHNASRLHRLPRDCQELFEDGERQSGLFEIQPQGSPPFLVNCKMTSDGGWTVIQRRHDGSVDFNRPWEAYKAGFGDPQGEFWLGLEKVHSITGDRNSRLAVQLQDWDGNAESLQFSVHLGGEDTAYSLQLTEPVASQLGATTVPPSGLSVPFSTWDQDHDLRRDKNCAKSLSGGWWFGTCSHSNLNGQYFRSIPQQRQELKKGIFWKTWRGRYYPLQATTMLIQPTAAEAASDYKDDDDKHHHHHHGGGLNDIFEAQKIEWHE

[3] = biological target: T3, Human ANGPTL4(26-406)-FLAG-His6-Avi (human, UniProt Q9BY76 24-406, biotin on the C-terminal Avi tag (BirA) where the protein is immobilised); experiment: as above
T3 construct: the text calls it 20 amino acids), then QP, ANGPTL4 26-406 and FLAG-His6-Avi; the signal peptide is left out here; also called full length human ANGPTL4; hANGPTL4
T3 sequence: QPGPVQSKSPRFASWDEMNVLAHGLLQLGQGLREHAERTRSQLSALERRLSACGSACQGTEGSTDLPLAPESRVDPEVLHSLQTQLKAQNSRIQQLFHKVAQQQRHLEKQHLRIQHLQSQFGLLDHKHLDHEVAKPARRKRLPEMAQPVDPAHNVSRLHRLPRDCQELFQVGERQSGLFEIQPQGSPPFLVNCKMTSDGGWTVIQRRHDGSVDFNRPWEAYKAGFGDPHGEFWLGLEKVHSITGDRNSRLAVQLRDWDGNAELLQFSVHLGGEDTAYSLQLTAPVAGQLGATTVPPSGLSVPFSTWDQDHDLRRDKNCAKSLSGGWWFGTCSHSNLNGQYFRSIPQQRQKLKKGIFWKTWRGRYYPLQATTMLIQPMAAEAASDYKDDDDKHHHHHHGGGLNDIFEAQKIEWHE

[4] = biological target: T4, Rat ANGPTL4(24-405)-FLAG-His6-Avi (rat, UniProt Q6TMA8 24-405, biotin on the C-terminal Avi tag (BirA) where the protein is immobilised); experiment: Octet (ForteBio) kinetics, biotinylated antigen on streptavidin sensor, IgG in solution; Octet kinetics, rat ANGPTL4 on the sensor, antibody up to 25 nM; run 1
T4 sequence: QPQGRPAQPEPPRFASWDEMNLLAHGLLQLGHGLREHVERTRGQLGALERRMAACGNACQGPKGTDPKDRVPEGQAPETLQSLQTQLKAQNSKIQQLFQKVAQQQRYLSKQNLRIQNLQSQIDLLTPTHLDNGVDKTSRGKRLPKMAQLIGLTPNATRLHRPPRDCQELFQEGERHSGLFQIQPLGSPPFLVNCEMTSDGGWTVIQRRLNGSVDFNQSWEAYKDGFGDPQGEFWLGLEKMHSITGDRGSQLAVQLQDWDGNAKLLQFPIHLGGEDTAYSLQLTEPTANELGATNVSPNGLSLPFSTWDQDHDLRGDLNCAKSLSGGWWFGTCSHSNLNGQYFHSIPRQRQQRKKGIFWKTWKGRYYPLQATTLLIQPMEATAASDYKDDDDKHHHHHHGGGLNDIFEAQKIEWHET

[5] = biological target: T4, Rat ANGPTL4(24-405)-FLAG-His6-Avi; experiment: Octet (ForteBio) kinetics, biotinylated antigen on streptavidin sensor, IgG in solution; Octet kinetics; run 3 on rat ANGPTL4

B1: NEG276-LALA (antibody, human IgG1, kappa, L234A L235A)
heavy: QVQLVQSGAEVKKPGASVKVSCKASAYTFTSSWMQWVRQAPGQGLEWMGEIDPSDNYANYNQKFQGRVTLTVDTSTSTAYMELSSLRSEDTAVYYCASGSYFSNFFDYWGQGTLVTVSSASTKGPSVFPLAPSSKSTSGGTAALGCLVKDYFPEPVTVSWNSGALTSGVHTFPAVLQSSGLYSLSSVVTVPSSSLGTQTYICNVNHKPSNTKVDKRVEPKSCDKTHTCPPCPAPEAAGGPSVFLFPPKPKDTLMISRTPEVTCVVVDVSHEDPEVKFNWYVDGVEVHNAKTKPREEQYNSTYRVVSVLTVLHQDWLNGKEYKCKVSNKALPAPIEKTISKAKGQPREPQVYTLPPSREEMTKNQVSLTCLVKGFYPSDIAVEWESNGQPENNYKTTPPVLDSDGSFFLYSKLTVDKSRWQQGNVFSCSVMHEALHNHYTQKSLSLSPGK
light: EIVMTQSPATLSVSPGERATLSCKASQDIGSNLNWLQQKPGQAPRRLIYAVSNRGPGIPARFSGSRSGSEYTLTISSLQSEDFAVYYCLQYASSPWTFGQGTKVEIKRTVAAPSVFIFPPSDEQLKSGTASVVCLLNNFYPREAKVQWKVDNALQSGNSQESVTEQDSKDSTYSLSSTLTLSKADYEKHKVYACEVTHQGLSSPVTKSFNRGEC
**Q.** For B1, which koff [1] is on record?
**A.** 3.1e-06 s⁻¹

**Q.** And the koff [2]?
**A.** 4.1e-06 s⁻¹

**Q.** And the koff [3]?
**A.** 4.9e-07 s⁻¹

**Q.** What about the Kd [4] of the same binder?
**A.** 7.47 nM

**Q.** And the koff [4]?
**A.** 0.0012 s⁻¹

**Q.** And the kon [4]?
**A.** 160000 M⁻¹ s⁻¹

**Q.** What about the Kd [5] of the same binder?
**A.** 5.53 nM

**Q.** And the koff [5]?
**A.** 0.00028 s⁻¹

**Q.** And the kon [5]?
**A.** 52000 M⁻¹ s⁻¹
